Data published in patent US20240141039A1 (AGENUS, published 2024).
Where two headings read alike, the source gives them in different places.

Assays:
[1] = molecular target: T1, wild type full-length cynomolgus monkey CD96 isoform 2 expressed on CHO cells (cynomolgus monkey, UniProt A0A2K5TWV6 22-569); assay: flow cytometry, cynomolgus CD96 (isoform 2) CHO cells, 1 experiment
T1 construct: whole, on cells; also called cynomolgus CD96-CHO cells; cynomolgus CD96-CHO (isoform 2)
T1 sequence: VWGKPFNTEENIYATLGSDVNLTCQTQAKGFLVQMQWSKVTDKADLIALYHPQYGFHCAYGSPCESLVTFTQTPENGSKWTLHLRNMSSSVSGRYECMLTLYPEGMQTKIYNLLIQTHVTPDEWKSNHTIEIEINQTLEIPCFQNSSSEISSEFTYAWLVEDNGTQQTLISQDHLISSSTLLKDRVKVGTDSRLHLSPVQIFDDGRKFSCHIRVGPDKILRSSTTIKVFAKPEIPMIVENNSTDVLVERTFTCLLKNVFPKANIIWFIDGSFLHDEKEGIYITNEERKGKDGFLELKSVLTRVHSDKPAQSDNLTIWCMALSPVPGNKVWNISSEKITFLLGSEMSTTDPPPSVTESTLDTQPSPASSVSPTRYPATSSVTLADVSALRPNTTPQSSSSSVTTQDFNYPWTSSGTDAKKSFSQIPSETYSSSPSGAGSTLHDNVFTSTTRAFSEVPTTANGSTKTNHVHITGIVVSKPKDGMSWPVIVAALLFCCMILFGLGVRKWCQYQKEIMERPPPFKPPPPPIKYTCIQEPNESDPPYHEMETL

[2] = molecular target: T2, wild type full-length human TIGIT expressed on cells (human, UniProt Q495A1 22-244); assay: flow cytometry, dual binding: CHO hu-TIGIT cells with antibody and soluble huCD96-His, Alexa Fluor 488 anti-His detection
T2 construct: whole, on cells; also called human TIGIT-CHO; human TIGIT CHO cells
T2 sequence (looked up): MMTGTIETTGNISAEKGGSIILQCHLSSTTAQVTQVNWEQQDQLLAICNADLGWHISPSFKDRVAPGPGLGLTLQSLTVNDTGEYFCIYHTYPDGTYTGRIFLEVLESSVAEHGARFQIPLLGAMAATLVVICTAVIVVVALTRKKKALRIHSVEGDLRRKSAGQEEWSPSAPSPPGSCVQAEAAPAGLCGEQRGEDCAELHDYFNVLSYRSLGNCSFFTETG
Source text: Cells were centrifuged at 300 g for five minutes.
Antibodies were serially diluted 1-to-3 in FACS buffer.

[3] = molecular target: T3, wild type full-length cynomolgus monkey TIGIT expressed on CHO cells (cynomolgus monkey, UniProt A0A7N9I9V4 89-312); assay: flow cytometry, blocking of human CD155-Fc-PE binding to CHO cells expressing cynomolgus TIGIT
T3 construct: whole, on cells; also called cynomolgus TIGIT-CHO cells
T3 sequence (A0A7N9I9V4 entry or part of it): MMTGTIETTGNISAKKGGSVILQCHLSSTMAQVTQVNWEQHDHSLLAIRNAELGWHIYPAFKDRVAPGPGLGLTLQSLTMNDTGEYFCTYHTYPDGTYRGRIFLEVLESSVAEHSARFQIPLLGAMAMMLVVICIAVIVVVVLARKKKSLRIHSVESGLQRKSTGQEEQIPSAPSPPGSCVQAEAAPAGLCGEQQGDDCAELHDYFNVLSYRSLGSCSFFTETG

[4] = molecular target: T3, wild type full-length cynomolgus monkey …; assay: flow cytometry on CHO cells expressing cynomolgus TIGIT, PE anti-human IgG Fc detection
[5] = molecular target: T4, full-length human FcγRIIIa variant V/V expressed on CHO cells (human, UniProt P08637 17-254); assay: flow cytometry, human FcγRIIIa (V/V) CHO cells, 2 experiments
T4 construct: whole, on cells; also called human FcγRIIIa-CHO (variant V/V); human FcγRIIIa (V/V) CHO cells
T4 sequence (P08637 other isoform, or with tags, fused parts or gaps mutant limits assumed): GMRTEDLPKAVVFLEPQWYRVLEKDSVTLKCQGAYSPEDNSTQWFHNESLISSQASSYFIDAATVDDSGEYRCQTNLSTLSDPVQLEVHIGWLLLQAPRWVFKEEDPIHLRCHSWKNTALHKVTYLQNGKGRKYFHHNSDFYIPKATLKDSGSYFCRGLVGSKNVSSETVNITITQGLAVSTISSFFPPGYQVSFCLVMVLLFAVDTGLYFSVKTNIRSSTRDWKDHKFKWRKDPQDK
Protocol: For the antibody binding assay, a frozen aliquot of human FcγRIIIa-CHO cells (variant V/V or variant F/F) was thawed at 37° C. and then transferred to a tube containing DPBS supplemented with 0.5% Bovine Serum Albumin and 0.05% Sodium Azide (FACS Buffer). Cells were centrifuged at 300 g for five minutes. The supernatant was discarded, and cells resuspended in FACS buffer were seeded in a 96-well U-bottom tissue culture plate at a density of 2×10⁵ cells per well in 50 μL. In a separate microplate, a 2× concentrated intermediate stock of each antibody was prepared. Antibodies were serially diluted 1-to-4 in FACS buffer. A total of 11 working dilutions ranging from 60 μg/mL to 0.000057 μg/mL were prepared. Fifty microlitres of each dilution were then transferred to the microplate containing human FcγRIIIa-CHO (variant V/V or variant F/F) cells. The cells were then incubated for 45 minutes at 4° C. […] After a 30-minute incubation on ice, the cells were washed twice with cold FACS Buffer, and the cells were analyzed by flow cytometry (BD LSR Fortessa Flow Cytometer). The data were analyzed using the FlowJo software by sequentially gating the FSC-A vs. SSC-A, and SSC-H vs. SSC-A. Mean fluorescence intensity (MFI) values for PE were calculated, and the data were plotted by GraphPad Prism software.

[6] = molecular target: T3, wild type full-length cynomolgus monkey …; assay: flow cytometry, blocking of human CD155-Fc-PE binding to CHO cells expressing cynomolgus TIGIT; remark: listed apart in the source
Protocol: A 4× concentrated intermediate stock of each multispecific molecule was prepared in a microplate. Antibodies were serially diluted 1-to-4 in FACS buffer. […] Lastly, 25 μL of cynomolgus TIGIT-CHO cells, prepared as described above, were added to each well. After a 30-minute incubation on ice, the cells were washed twice with cold FACS Buffer, and the cells were analyzed by flow cytometry (BD LSR Fortessa Flow Cytometer). The data were analyzed using the FlowJo software by sequentially gating on the FSC-A vs. SSC-A and SSC-H vs. SSC-A. Mean fluorescence intensity (MFI) values for PE were calculated, and the data were plotted by GraphPad Prism software and analyzed as described above.

B1: anti-TIGIT×CD96 multispecific molecule BA123 (bispecific antibody, human IgG1, kappa, lambda)
heavy 1: QVQLVQSGAEVKKPGASVKVSCKASGYTFTSYGISWVRQAPGQGLEWMGWISAYNANTNYAQKLQGRVTMTTDTSTSTAYMELRSLRSDDTAVYYCARSAGVLGGMDVWGRGTLVTVSSASTKGPSVFPLAPSSKSTSGGTAALGCLVKDYFPEPVTVSWNSGALTSGVHTFPAVLQSSGLYSLSSVVTVPSSSLGTQTYICNVNHKPSNTKVDKRVEPKSCDKTHTCPPCPAPELLGGPDVFLFPPKPKDTLMISRTPEVTCVVVDVSHEDPEVKFNWYVDGVEVHNAKTKPREEQYNSTYRVVSVLTVLHQDWLNGKEYKCKVSNKALPAPIEKTISKAKGQPREPQVYTLPPSREEMTKNQVSLSCAVKGFYPSDIAVEWESNGQPENNYKTTPPVLDSDGSFFLVSKLTVDKSRWQQGNVFSCSVMHEALHNHYTQKSLSLSPG
light 1: not shown
heavy 2: EVQLVQSGAEVKKPGSSVKVSCKASGYTFASYGISWVRQAPGQGLEWMGGITPFFNRVDVAEKFQGRVTITADKSTSTAYIELSSLRSEDTAVYYCARDLRRGGVGDAFDIWGRGTLVTVSSASTKGPSVFPLAPSSKSTSGGTAALGCLVKDYFPEPVTVSWNSGALTSGVHTFPAVLQSSGLYSLSSVVTVPSSSLGTQTYICNVNHKPSNTKVDKRVEPKSCDKTHTCPPCPAPELLGGPDVFLFPPKPKDTLMISRTPEVTCVVVDVSHEDPEVKFNWYVDGVEVHNAKTKPREEQYNSTYRVVSVLTVLHQDWLNGKEYKCKVSNKALPLPEEKTISKAKGQPREPQVYTLPPSREEMTKNQVSLWCLVKGFYPSDIAVEWESNGQPENNYKTTPPVLDSDGSFFLYSKLTVDKSRWQQGNVFSCSVMHEALHNHYTQKSLSLSPG
light 2: QSALTQPRSVSGSPGQSVTISCTGTSPDVGSHAYRSWYQQHPGKAPKLMIYEVSYRPSGVSNRFSGSKSGNTASLTISGLQAEDEADYYCSSYPPSSATVFGAGTKLTVLGQPKAAPSVTLFPPSSEELQANKATLVCLISDFYPGAVTVAWKADSSPVKAGVETTTPSKQSNNKYAASSYLSLTPEQWKSHRSYSCQVTHEGSTVEKTVAPTEC
notes: copies: 1 + 1 + 1 + 1
EC50 [1]: 1.04 µg/mL

B2: anti-TIGIT×CD96 multispecific molecule BA127 (bispecific antibody, human IgG1, kappa, lambda)
heavy 1: QVQLVQSGAEVKKPGASVKVSCKASGYTFTTYALHWVRQAPGQRLEWMGWINTGSGDTKYSQKFQGRVTITRDTSASTAYMELSSLRSEDTAVYYCARSLGVYYGMDVWGQGTLVTVSSASTKGPSVFPLAPSSKSTSGGTAALGCLVKDYFPEPVTVSWNSGALTSGVHTFPAVLQSSGLYSLSSVVTVPSSSLGTQTYICNVNHKPSNTKVDKRVEPKSCDKTHTCPPCPAPELLGGPDVFLFPPKPKDTLMISRTPEVTCVVVDVSHEDPEVKFNWYVDGVEVHNAKTKPREEQYNSTYRVVSVLTVLHQDWLNGKEYKCKVSNKALPAPIEKTISKAKGQPREPQVYTLPPSREEMTKNQVSLSCAVKGFYPSDIAVEWESNGQPENNYKTTPPVLDSDGSFFLVSKLTVDKSRWQQGNVFSCSVMHEALHNHYTQKSLSLSPG
light 1: not shown
heavy 2: B1 heavy 2
light 2: B1 light 2
notes: Anti-CD96 arm = BA139, anti-TIGIT arm = BA150; copies: 1 + 1 + 1 + 1
EC50 (read off the curve) [2]: ~0.3 µg/mL | IC50 (read off the curve) [3]: ~3 µg/mL

B3: anti-TIGIT monospecific antibody BA148 (antibody, human IgG1, lambda)
heavy: EVQLVQSGAEVKKPGSSVKVSCKASGYTFASYGISWVRQAPGQGLEWMGGITPFFNRVDVAEKFQGRVTITADKSTSTAYIELSSLRSEDTAVYYCARDLRRGGVGDAFDIWGRGTLVTVSSASTKGPSVFPLAPSSKSTSGGTAALGCLVKDYFPEPVTVSWNSGALTSGVHTFPAVLQSSGLYSLSSVVTVPSSSLGTQTYICNVNHKPSNTKVDKRVEPKSCDKTHTCPPCPAPELLGGPDVFLFPPKPKDTLMISRTPEVTCVVVDVSHEDPEVKFNWYVDGVEVHNAKTKPREEQYNSTYRVVSVLTVLHQDWLNGKEYKCKVSNKALPLPEEKTISKAKGQPREPQVYTLPPSREEMTKNQVSLTCLVKGFYPSDIAVEWESNGQPENNYKTTPPVLDSDGSFFLYSKLTVDKSRWQQGNVFSCSVMHEALHNHYTQKSLSLSPGK
light: B1 light 2
notes: IgG1; also called anti-TIGIT IgG1 antibody BA148
EC50 (read off the curve) [4]: ~0.04 µg/mL | EC50 [5]: 0.0455 µg/mL | IC50 (read off the curve) [6]: ~0.2 µg/mL
